Results as given in the supplement of paper PMC10126150.
± gives the standard deviation of the averaged measurements.

System: ATP
Experiment: switch fluorescence ratio, 500 uM ATP over buffer (Cy3 cluster intensity, sum of 5 cycles each) (fold (ratio)); higher = stronger signal-on switching upon ATP binding; sequences stand for … in TCGTCGGCAGCGTCAGATGTGTATAAGAGACAGTTTTTTTTTTTTTTTTTTTTTTTTT…TC
Conditions: aptamer strand: ATP DNA aptamer (quencher-CACCTGGGGGAGTATTGCGGAGGAAGG + anchor), 100 nM annealed; ATP concentration: 500 uM
Method in brief: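 Values give the fluorescence ratio for each switch-domain sequence, averaged from per-cluster ratios of summed target-cycle to summed buffer-cycle Cy3 intensity. The Cy3-labelled switching-strand clusters sat on a modified Illumina MiSeq flow-cell, were annealed to 100 nM quencher-labelled ATP aptamer, and were imaged in selection buffer, then after 15 min with 500 uM ATP at 22 °C. Five cycles ran with NaOH stripping and re-annealing between them, and clusters outside 100-1000 RFU were excluded.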
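Further: ATP exposure 15 min at 22 °C before imaging.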

In the case of GAGGGTATCG, the switch fluorescence ratio is reported as 0.984 ± 0.039.

In the case of GAGGGTCAAA, the switch fluorescence ratio is reported as 1.004 ± 0.01.

With GAGGGTCATC the switch fluorescence ratio was 0.935 ± 0.056.

GAGGGTGAGT was tested, and the switch fluorescence ratio was 0.9809 ± 0.0054.

GAGGGTGCGG gave a switch fluorescence ratio of 1.01 ± 0.027.

In the case of GAGGGTGGGC, the switch fluorescence ratio is reported as 1.03 ± 0.09.

GAGGGTGTAG was tested, and the switch fluorescence ratio was 0.988 ± 0.018.

For GAGGGTGTGG, the switch fluorescence ratio was 1.02 ± 0.022.

GAGGGTTAGT gave a switch fluorescence ratio of 0.9866 ± 0.0066.

GAGGGTTGGC gave a switch fluorescence ratio of 0.95 ± 0.084.

For GAGGGTTTGG, the switch fluorescence ratio was 0.989 ± 0.037.

In the case of GAGGGTTTGT, the switch fluorescence ratio is reported as 0.973 ± 0.039.

GAGGTACCGC gave a switch fluorescence ratio of 1.05 ± 0.029.

GAGGTAGCGC gave a switch fluorescence ratio of 0.98 ± 0.01.

Work on GAGGTATGGA yielded a switch fluorescence ratio of 0.9842 ± 0.0019.

GAGGTATGTT showed a switch fluorescence ratio of 0.999 ± 0.02.

Work on GAGGTCAAGG yielded a switch fluorescence ratio of 0.987 ± 0.033.

Sequence GAGGTCATTC has a switch fluorescence ratio of 0.999 ± 0.029.

Sequence GAGGTCGTAA has a switch fluorescence ratio of 1.05 ± 0.051.

Work on GAGGTGGCAG yielded a switch fluorescence ratio of 1.0097 ± 0.00096.

Work on GAGGTGTGGG yielded a switch fluorescence ratio of 0.981 ± 0.016.

With GAGGTGTTGC the switch fluorescence ratio was 0.985 ± 0.035.

GAGGTTAATA showed a switch fluorescence ratio of 1.04 ± 0.021.

GAGGTTATTA gave a switch fluorescence ratio of 1 ± 0.066.

GAGGTTGCTG showed a switch fluorescence ratio of 0.987 ± 0.026.

For GAGGTTGTAC, the switch fluorescence ratio was 1.02 ± 0.012.

GAGGTTTCAT showed a switch fluorescence ratio of 0.997 ± 0.016.

Work on GAGTAAAACA yielded a switch fluorescence ratio of 1.16 ± 0.27.

GAGTAAAGTT showed a switch fluorescence ratio of 0.982 ± 0.02.

In the case of GAGTAAGAGC, the switch fluorescence ratio is reported as 1.017 ± 0.0075.

With GAGTAAGCGG the switch fluorescence ratio was 1.01 ± 0.048.

For GAGTAAGGAC, the switch fluorescence ratio was 1.09 ± 0.061.

Sequence GAGTAAGGTA has a switch fluorescence ratio of 1.02 ± 0.024.

With GAGTAAGTGG the switch fluorescence ratio was 0.99 ± 0.039.

GAGTAATCGG gave a switch fluorescence ratio of 1.01 ± 0.049.

GAGTACCCGG was tested, and the switch fluorescence ratio was 1 ± 0.018.

GAGTAGAAGA gave a switch fluorescence ratio of 1.01 ± 0.035.

With GAGTAGACGT the switch fluorescence ratio was 0.998 ± 0.049.

With GAGTAGGGGT the switch fluorescence ratio was 1.01 ± 0.022.

GAGTATCTGC showed a switch fluorescence ratio of 1.01 ± 0.079.

Work on GAGTATGCAT yielded a switch fluorescence ratio of 0.984 ± 0.023.

With GAGTATTCGG the switch fluorescence ratio was 0.998 ± 0.031.

Work on GAGTATTGGG yielded a switch fluorescence ratio of 0.9897 ± 0.0087.

GAGTATTGGT gave a switch fluorescence ratio of 0.9817 ± 0.0094.

Sequence GAGTATTTAA has a switch fluorescence ratio of 0.964 ± 0.058.

With GAGTCAAGGG the switch fluorescence ratio was 0.998 ± 0.021.

For GAGTCAGGTA, the switch fluorescence ratio was 1.01 ± 0.029.

For GAGTCAGTGG, the switch fluorescence ratio was 0.984 ± 0.012.

Work on GAGTCCGCCT yielded a switch fluorescence ratio of 1.6 ± 0.093.

For GAGTCGAGGG, the switch fluorescence ratio was 0.961 ± 0.017.

GAGTCGAGTG gave a switch fluorescence ratio of 1.01 ± 0.048.

For GAGTCGGTGT, the switch fluorescence ratio was 1.026 ± 0.0063.

GAGTCTAGCG gave a switch fluorescence ratio of 1.02 ± 0.064.

With GAGTCTATTG the switch fluorescence ratio was 1.023 ± 0.0022.

In the case of GAGTCTGGGG, the switch fluorescence ratio is reported as 0.978 ± 0.049.

For GAGTGAGCTT, the switch fluorescence ratio was 0.966 ± 0.046.

Work on GAGTGAGTAG yielded a switch fluorescence ratio of 0.9794 ± 0.0059.

GAGTGCGGGA showed a switch fluorescence ratio of 1.02 ± 0.044.

In the case of GAGTGCTCGA, the switch fluorescence ratio is reported as 1.01 ± 0.074.

GAGTGGACGG showed a switch fluorescence ratio of 0.998 ± 0.018.

Sequence GAGTGGCACC has a switch fluorescence ratio of 1.04 ± 0.042.

Work on GAGTGGCTGG yielded a switch fluorescence ratio of 0.979 ± 0.014.

For GAGTGGGCTC, the switch fluorescence ratio was 0.9879 ± 0.0045.

In the case of GAGTGGGGGA, the switch fluorescence ratio is reported as 0.99 ± 0.023.

GAGTGGGTGG gave a switch fluorescence ratio of 0.99 ± 0.037.

With GAGTGGTACC the switch fluorescence ratio was 1.01 ± 0.025.

GAGTGGTGTG showed a switch fluorescence ratio of 0.979 ± 0.035.

In the case of GAGTGTGTGT, the switch fluorescence ratio is reported as 1.006 ± 0.0053.

Sequence GAGTGTTCAG has a switch fluorescence ratio of 0.997 ± 0.018.

GAGTGTTGGG was tested, and the switch fluorescence ratio was 1.004 ± 0.0052.

GAGTTAAGAC gave a switch fluorescence ratio of 0.991 ± 0.049.

GAGTTCCTGT showed a switch fluorescence ratio of 1.01 ± 0.014.

With GAGTTGGGAG the switch fluorescence ratio was 1.01 ± 0.032.

With GAGTTGGTAG the switch fluorescence ratio was 0.969 ± 0.021.

GAGTTGGTCT gave a switch fluorescence ratio of 1 ± 0.027.

For GAGTTTAATT, the switch fluorescence ratio was 0.999 ± 0.038.

GAGTTTAGGT showed a switch fluorescence ratio of 1.02 ± 0.011.

In the case of GAGTTTGAGT, the switch fluorescence ratio is reported as 0.982 ± 0.035.

GAGTTTGGGT was tested, and the switch fluorescence ratio was 0.985 ± 0.032.

GAGTTTTCTA gave a switch fluorescence ratio of 0.9987 ± 0.0081.

Sequence GAGTTTTTTG has a switch fluorescence ratio of 1.03 ± 0.039.

GATAAAAGCG was tested, and the switch fluorescence ratio was 0.994 ± 0.0015.

GATAAATAAA showed a switch fluorescence ratio of 1 ± 0.02.

GATAAATGGG gave a switch fluorescence ratio of 0.994 ± 0.024.

Sequence GATAAATGTT has a switch fluorescence ratio of 0.985 ± 0.01.

In the case of GATAAGATGG, the switch fluorescence ratio is reported as 0.979 ± 0.034.

GATAAGGAAG was tested, and the switch fluorescence ratio was 1.02 ± 0.011.

Sequence GATACAGCTA has a switch fluorescence ratio of 1.03 ± 0.042.

With GATACAGTAA the switch fluorescence ratio was 1.06 ± 0.017.

Sequence GATACATGGG has a switch fluorescence ratio of 0.985 ± 0.038.

GATACCGGGT showed a switch fluorescence ratio of 1.01 ± 0.022.

GATACCTTTG gave a switch fluorescence ratio of 1.72 ± 1.

In the case of GATACGGACA, the switch fluorescence ratio is reported as 1.42 ± 0.019.

GATACGTGGG gave a switch fluorescence ratio of 0.9702 ± 0.0065.

GATACTTTTT was tested, and the switch fluorescence ratio was 1.01 ± 0.029.

With GATAGAAGTA the switch fluorescence ratio was 0.9733 ± 0.0057.

GATAGACTTT gave a switch fluorescence ratio of 1.02 ± 0.048.

With GATAGATGTT the switch fluorescence ratio was 0.979 ± 0.02.

In the case of GATAGGGCAT, the switch fluorescence ratio is reported as 1.02 ± 0.012.

GATAGGGGAA gave a switch fluorescence ratio of 0.978 ± 0.022.

Sequence GATAGGGGAC has a switch fluorescence ratio of 1.03 ± 0.039.

In the case of GATAGGGGTT, the switch fluorescence ratio is reported as 0.975 ± 0.022.

GATAGGTG showed a switch fluorescence ratio of 1.21 ± 0.1.

For GATAGTAAGT, the switch fluorescence ratio was 0.998 ± 0.077.

Work on GATAGTGATA yielded a switch fluorescence ratio of 1.01 ± 0.019.

GATAGTTTGT showed a switch fluorescence ratio of 1 ± 0.011.

Work on GATATAGGCG yielded a switch fluorescence ratio of 1.05 ± 0.047.

With GATATAGTGT the switch fluorescence ratio was 0.991 ± 0.02.

GATATATATG showed a switch fluorescence ratio of 1.01 ± 0.015.

With GATATATGCT the switch fluorescence ratio was 1 ± 0.013.

In the case of GATATATTAT, the switch fluorescence ratio is reported as 1.017 ± 0.0038.

Work on GATATATTTT yielded a switch fluorescence ratio of 0.976 ± 0.01.

Sequence GATATCAGGG has a switch fluorescence ratio of 0.978 ± 0.037.

Work on GATATCCATG yielded a switch fluorescence ratio of 0.972 ± 0.014.

GATATGGGGG was tested, and the switch fluorescence ratio was 1.01 ± 0.03.

GATATTAGAT showed a switch fluorescence ratio of 1.02 ± 0.046.

GATATTATTT gave a switch fluorescence ratio of 0.998 ± 0.024.

Sequence GATATTGCGA has a switch fluorescence ratio of 1.02 ± 0.035.

In the case of GATATTGTTA, the switch fluorescence ratio is reported as 1 ± 0.029.

With GATATTTCGG the switch fluorescence ratio was 1.011 ± 0.0024.

Work on GATATTTTAA yielded a switch fluorescence ratio of 0.992 ± 0.037.

In the case of GATCAGTGGC, the switch fluorescence ratio is reported as 1.05 ± 0.071.

Sequence GATCATGCCT has a switch fluorescence ratio of 1.048 ± 0.008.

Work on GATCATTTGT yielded a switch fluorescence ratio of 0.9797 ± 0.0018.

GATCCACGGT showed a switch fluorescence ratio of 1.03 ± 0.027.

GATCGACTGG gave a switch fluorescence ratio of 1.029 ± 0.0075.

With GATCGAGGGG the switch fluorescence ratio was 1.05 ± 0.1.

With GATCGCAGCG the switch fluorescence ratio was 0.986 ± 0.032.

In the case of GATCGCGTAT, the switch fluorescence ratio is reported as 1.02 ± 0.0026.

Work on GATCGGGGAC yielded a switch fluorescence ratio of 1.03 ± 0.027.

Sequence GATCGGGGGA has a switch fluorescence ratio of 1.02 ± 0.015.

Work on GATCGGTAAT yielded a switch fluorescence ratio of 1.04 ± 0.028.

GATCTCAGGG was tested, and the switch fluorescence ratio was 1 ± 0.034.

For GATCTGCTTC, the switch fluorescence ratio was 1.02 ± 0.026.

For GATCTTCGGC, the switch fluorescence ratio was 0.9541 ± 0.0027.

GATCTTTGTT gave a switch fluorescence ratio of 1.009 ± 0.0093.

GATCTTTTCG showed a switch fluorescence ratio of 1.01 ± 0.037.

GATGAAAAGT was tested, and the switch fluorescence ratio was 0.976 ± 0.015.

GATGAAAGAT gave a switch fluorescence ratio of 1.003 ± 0.0085.

GATGAAGACT gave a switch fluorescence ratio of 1 ± 0.067.

Work on GATGACCTTT yielded a switch fluorescence ratio of 1.07 ± 0.14.

GATGACTTTT showed a switch fluorescence ratio of 1 ± 0.023.

GATGAGGTTC was tested, and the switch fluorescence ratio was 0.967 ± 0.053.

For GATGATGAGG, the switch fluorescence ratio was 0.9961 ± 0.0073.

Sequence GATGATGGCG has a switch fluorescence ratio of 1.05 ± 0.073.

GATGATGTTT was tested, and the switch fluorescence ratio was 0.973 ± 0.039.

GATGATTCTG gave a switch fluorescence ratio of 1.001 ± 0.0056.

In the case of GATGCAGGGC, the switch fluorescence ratio is reported as 1.12 ± 0.081.

Sequence GATGCATGTT has a switch fluorescence ratio of 0.9947 ± 0.0021.

GATGCCGGCA showed a switch fluorescence ratio of 0.98 ± 0.065.

GATGCGCCGG gave a switch fluorescence ratio of 1.03 ± 0.034.

Sequence GATGCGGGGA has a switch fluorescence ratio of 1.01 ± 0.018.

GATGCGTACG showed a switch fluorescence ratio of 1 ± 0.055.

Sequence GATGCTATTT has a switch fluorescence ratio of 1.004 ± 0.0087.

Sequence GATGGAACAC has a switch fluorescence ratio of 0.994 ± 0.017.

GATGGAGGAG showed a switch fluorescence ratio of 1.03 ± 0.027.

Work on GATGGAGGAT yielded a switch fluorescence ratio of 1.01 ± 0.021.
